Measured values reported in article PMC5497220 (2017).
Where no end group is shown, it is not given here.

Biological target: T1, Histone H3 (4-10) K9ac peptide 4-10 (Homo sapiens, UniProt P68431, not fully specified (residue 7))
T1 chain: TKQTARK
Assay: ITC

Kd: 30.1 µM
B1: ENL (protein)
chain: MDNQCTVQVRLELGHRAQLRKKPTTEGFTHDWMVFVRGPEQCDIQHFVEKVVFWLHDSFPKPRRVCKEPPYKVEESGYAGFIMPIEVHFKNKEEPRKVCFTYDLFLNLEGNPPVNHLRCEKLTFNNPTTEFRYKLLRAGGVMVMPEGADTVSRPSPDYPMLPTIPLSAFSDPKKTKPSHGSKDANKESSKTSKPHKVTKEHRERPRKDSESKSSSKELEREQAKSSKDTSRKLGEGRLPKEEKAPPPKAAFKEPKMALKETKLESTSPKGGPPPPPPPPPRASSKRPATADSPKPSAKKQKKSSSKGSRSAPGTSPRTSSSSSFSDKKPAKDKSSTRGEKVKAESEPREAKKALEVEESNSEDEASFKSESAQSSPSNSSSSSDSSSDSDFEPSQNHSQGPLRSMVEDLQSEESDEDDSSSGEEAAGKTNPGRDSRLSFSDSESDNSADSSLPSREPPPPQKPPPPNSKVSGRRSPESCSKPEKILKKGTYDKAYTDELVELHRRLMALRERNVLQQIVNLIEETGHFNVTNTTFDFDLFSLDETTVRKLQSCLEAVAT
